Experimental data published in patent US12295987B2, “Method of using a GIP/GLP1 co-agonist for diabetes” (Eli Lilly and Company, priority 2018, dated 2025).

Target: T1, human gastric inhibitory peptide receptor (hGIPR) (Homo sapiens, UniProt P48546)
T1 construct: expressed in transfected cells; host or cells: HEK293
T1 sequence (P48546 22-466): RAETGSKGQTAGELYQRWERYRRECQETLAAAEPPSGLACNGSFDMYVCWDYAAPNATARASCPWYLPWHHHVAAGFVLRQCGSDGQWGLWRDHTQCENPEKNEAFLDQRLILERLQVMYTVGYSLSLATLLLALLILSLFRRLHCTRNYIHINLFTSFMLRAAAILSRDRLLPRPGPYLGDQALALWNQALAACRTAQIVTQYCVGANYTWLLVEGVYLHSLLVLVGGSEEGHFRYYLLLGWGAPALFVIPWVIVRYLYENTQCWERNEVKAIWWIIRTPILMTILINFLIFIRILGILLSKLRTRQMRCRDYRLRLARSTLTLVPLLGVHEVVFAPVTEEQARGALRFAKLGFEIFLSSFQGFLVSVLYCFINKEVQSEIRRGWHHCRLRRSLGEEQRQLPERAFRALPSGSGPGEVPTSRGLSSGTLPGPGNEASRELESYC
Assay: cAMP pharmacological functional assay in presence of 0.1% casein, hGIPR
Type: cell-based
Settings: ratio of hGIPR to hGLP1R cAMP EC50 ratios

Q: How did the “[hGIPR/hGLP1R] EC50 Ratio” value turn out when “Y-Aib-EGT-αMeF(2F)-TSDLSI-αMeL-LD-Orn-K((2-[2-(2-Amino-ethoxy)-ethoxy]-acetyl)2-(γGlu)-CO—(CH2)16—CO2H)AQ-Aib-AFI-(D-Glu)-αMeY-LIEGGPSSGAPPPS-NH2 (YXEGTXTSDLSIXLDXKAQXAFIXXLIEGGPSSGAPPPS; Aib, Orn, αMe residues, lipidated Lys, D-Glu, amide; (2)..(2) Xaa at position 2 is Aib; (6)..(6) Xaa at position 6 is alpha-methyl-Phe(2F); (13)..(13) Xaa at position 13 is alpha-methyl-Leu; (16)..(16) Xaa at position 16 is Orn; MOD_RES (17)..(17) Lys at position 17 is chemically modified by conjugation of the epsilon-amino group of the Lys side chain with (2-[2-(2-amino-ethoxy)-ethoxy]-acetyl)2-(gamma-Glu)-CO-(CH2)16- CO2H; (20)..(20) Xaa at positi) [Peptide 244]” was run?
A: 6.41

Q: How did the “[hGIPR/hGLP1R] EC50 Ratio” value turn out when “Y-Aib-EGT-αMeF(2F)-TSDLSI-αMeL-LD-Orn-K((2-[2-(2-Amino-ethoxy)-ethoxy]-acetyl)2-(γGlu)-CO—(CH2)16—CO2H)AQ-Aib-EFI-(D-Glu)-αMeY-LIEGGPSSGAPPPS-NH2 (YXEGTXTSDLSIXLDXKAQXEFIXXLIEGGPSSGAPPPS; Aib, Orn, αMe residues, lipidated Lys, D-Glu, amide; (2)..(2) Xaa at position 2 is Aib; (6)..(6) Xaa at position 6 is alpha-methyl-Phe(2F); (13)..(13) Xaa at position 13 is alpha-methyl-Leu; (16)..(16) Xaa at position 16 is Orn; MOD_RES (17)..(17) Lys at position 17 is chemically modified by conjugation of the epsilon-amino group of the Lys side chain with (2-[2-(2-amino-ethoxy)-ethoxy]-acetyl)2-(gamma-Glu)-CO-(CH2)16- CO2H; (20)..(20) Xaa at positi) [Peptide 238]” was run?
A: 6.37

Q: For “Y-Aib-EGT-αMeF(2F)-TSDLSI-αMeL-LD-Orn-K((2-[2-(2-Amino-ethoxy)-ethoxy]-acetyl)2-(γGlu)-CO—(CH2)16—CO2H)AQ-Aib-TFI-(D-Glu)-αMeY-LIEGGPSSGAPPPS-NH2 (YXEGTXTSDLSIXLDXKAQXTFIXXLIEGGPSSGAPPPS; Aib, Orn, αMe residues, lipidated Lys, D-Glu, amide; (2)..(2) Xaa at position 2 is Aib; (6)..(6) Xaa at position 6 is alpha-methyl-Phe(2F); (13)..(13) Xaa at position 13 is alpha-methyl-Leu; (16)..(16) Xaa at position 16 is Orn; MOD_RES (17)..(17) Lys at position 17 is chemically modified by conjugation of the epsilon-amino group of the Lys side chain with (2-[2-(2-amino-ethoxy)-ethoxy]-acetyl)2-(gamma-Glu)-CO-(CH2)16- CO2H; (20)..(20) Xaa at positi) [Peptide 243]”, which “[hGIPR/hGLP1R] EC50 Ratio” value is on record?
A: 7.12

Q: How did the “[hGIPR/hGLP1R] EC50 Ratio” value turn out when “Y-Aib-EGT-αMeF(2F)-TSDLSI-αMeL-LDEK((2-[2-(2-Amino-ethoxy)-ethoxy]-acetyl)2-(γGlu)-CO—(CH2)18—CO2H)AQ-Aib-EFI-(D-Glu)-YLIEGGPSSGAPPPS-NH2 (YXEGTXTSDLSIXLDEKAQXEFIXYLIEGGPSSGAPPPS; Aib, αMeF(2F), αMeL, D-Glu; lipidated K; amide; (2)..(2) Xaa at position 2 is Aib; (6)..(6) Xaa at position 6 is alpha-methyl-Phe(2F); (13)..(13) Xaa at position 13 is alpha-methyl-Leu; MOD_RES (17)..(17) Lys at position 17 is chemically modified by conjugation of the epsilon-amino group of the Lys side chain with (2-[2-(2-amino-ethoxy)-ethoxy]-acetyl)2-(gamma-Glu)-CO-(CH2)18- CO2H; (20)..(20) Xaa at position 20 is Aib; (24)..(24) Xaa at positi) [Peptide 183]” was run?
A: 3.68

Q: With “Y-Aib-EGT-αMeF(2F)-TSDQSI-αMeL-LDEK((2-[2-(2-Amino-ethoxy)-ethoxy]-acetyl)2-(γGlu)-CO—(CH2)18—CO2H)AQ-Aib-EFI-(D-Glu)-YLIEGGPSSGAPPPS-NH2 (YXEGTXTSDQSIXLDEKAQXEFIXYLIEGGPSSGAPPPS; Aib, αMeF(2F), αMeL, D-Glu; lipidated K; amide; (2)..(2) Xaa at position 2 is Aib; (6)..(6) Xaa at position 6 is alpha-methyl-Phe(2F); (13)..(13) Xaa at position 13 is alpha-methyl-Leu; MOD_RES (17)..(17) Lys at position 17 is chemically modified by conjugation of the epsilon-amino group of the Lys side chain with (2-[2-(2-amino-ethoxy)-ethoxy]-acetyl)2-(gamma-Glu)-CO-(CH2)18- CO2H; (20)..(20) Xaa at position 20 is Aib; (24)..(24) Xaa at positi) [Peptide 187]” as the substance, how does the “[hGIPR/hGLP1R] EC50 Ratio” value read?
A: 6.57

Q: With “Y-Aib-EGT-αMeF(2F)-TSDVSI-αMeL-LD-Orn-K((2-[2-(2-Amino-ethoxy)-ethoxy]-acetyl)2-(γGlu)-CO—(CH2)16—CO2H)AQ-Aib-AFI-(D-Glu)-αMeY-LIEGGPSSGAPPPS-NH2 (YXEGTXTSDVSIXLDXKAQXAFIXXLIEGGPSSGAPPPS; Aib, Orn, αMe residues, lipidated Lys, D-Glu, amide; (2)..(2) Xaa at position 2 is Aib; (6)..(6) Xaa at position 6 is alpha-methyl-Phe(2F); (13)..(13) Xaa at position 13 is alpha-methyl-Leu; (16)..(16) Xaa at position 16 is Orn; MOD_RES (17)..(17) Lys at position 17 is chemically modified by conjugation of the epsilon-amino group of the Lys side chain with (2-[2-(2-amino-ethoxy)-ethoxy]-acetyl)2-(gamma-Glu)-CO-(CH2)16- CO2H; (20)..(20) Xaa at positi) [Peptide 242]” as the substance, how does the “[hGIPR/hGLP1R] EC50 Ratio” value read?
A: 2.85

Q: With “Y-Aib-EGT-αMeF(2F)-TSDVSI-αMeL-LD-Orn-K((2-[2-(2-Amino-ethoxy)-ethoxy]-acetyl)2-(γGlu)-CO—(CH2)16—CO2H)AQ-Aib-TFI-(D-Glu)-αMeY-LIEGGPSSGAPPPS-NH2 (YXEGTXTSDVSIXLDXKAQXTFIXXLIEGGPSSGAPPPS; Aib, Orn, αMe residues, lipidated Lys, D-Glu, amide; (2)..(2) Xaa at position 2 is Aib; (6)..(6) Xaa at position 6 is alpha-methyl-Phe(2F); (13)..(13) Xaa at position 13 is alpha-methyl-Leu; (16)..(16) Xaa at position 16 is Orn; MOD_RES (17)..(17) Lys at position 17 is chemically modified by conjugation of the epsilon-amino group of the Lys side chain with (2-[2-(2-amino-ethoxy)-ethoxy]-acetyl)2-(gamma-Glu)-CO-(CH2)16- CO2H; (20)..(20) Xaa at positi) [Peptide 241]” as the substance, how does the “[hGIPR/hGLP1R] EC50 Ratio” value read?
A: 3.77

Q: “Y-Aib-EGT-αMeF(2F)-TSDYSI-Aib-LD-Orn-K((2-[2-(2-Amino-ethoxy)-ethoxy]-acetyl)2-(Glu)-CO—(CH2)16—CO2H)AQ-Aib-EFI-(D-Glu)-YLIEGGPSSGAPPPS-NH2 (YXEGTXTSDYSIXLDXKAQXEFIXYLIEGGPSSGAPPPS; Aib, Orn, αMeF(2F), lipidated Lys, D-Glu, amide; (2)..(2) Xaa at position 2 is Aib; (6)..(6) Xaa at position 6 is alpha-methyl-Phe(2F); (13)..(13) Xaa at position 13 is Aib; (16)..(16) Xaa at position 16 is Orn; MOD_RES (17)..(17) Lys at position 17 is chemically modified by conjugation of the epsilon-amino group of the Lys side chain with (2-[2-(2-amino-ethoxy)-ethoxy]-acetyl)2-(gamma-Glu)-CO-(CH2)16- CO2H; (20)..(20) Xaa at position 20 is Aib;) [Peptide 247]” was tested. Which “[hGIPR/hGLP1R] EC50 Ratio” value did it give?
A: 4.20

Q: How did the “[hGIPR/hGLP1R] EC50 Ratio” value turn out when “Y-Aib-EGT-αMeF(2F)-TSDYSI-Aib-LD-Orn-K((2-[2-(2-Amino-ethoxy)-ethoxy]-acetyl)2-(γGlu)-CO—(CH2)18—CO2H)AQ-Aib-EFI-(D-Glu)-YLIEGGPSSGAPPPS-NH2 (YXEGTXTSDYSIXLDXKAQXEFIXYLIEGGPSSGAPPPS; Aib, Orn, αMeF(2F), lipidated Lys, D-Glu, amide; (2)..(2) Xaa at position 2 is Aib; (6)..(6) Xaa at position 6 is alpha-methyl-Phe(2F); (13)..(13) Xaa at position 13 is Aib; (16)..(16) Xaa at position 16 is Orn; MOD_RES (17)..(17) Lys at position 17 is chemically modified by conjugation of the epsilon-amino group of the Lys side chain with (2-[2-(2-amino-ethoxy)-ethoxy]-acetyl)2-(gamma-Glu)-CO-(CH2)18- CO2H; (20)..(20) Xaa at position 20 is Aib;) [Peptide 250]” was run?
A: 4.34
